This is an account of results in doi:10.1101/2025.01.30.635686 (bioRxiv, 2025).

The data set “SEC” concerns the molecule itself. The experiment in a line: SEC. For orientation: Size exclusion chromatography separates by hydrodynamic size, large species first.
Data set [1] deals with the molecule itself.

Positions count from the first letter of the chain named. In names and notes the source's numbering stands. Where two headings read alike, the source gives them in different places.

B1: ^hexYME1L (hex-tag, 10-residue linker and the catalytic domain of human YME1L, residues 317-773) (other, homo sapiens)
chain: GELKAIAQELKAIAKELKAIAWELKAIAQGAGGSGSYFQSNARFRTTTGLDSAVDPVQMKNVTFEHVKGVEEAKQELQEVVEFLKNPQKFTILGGKLPKGILLVGPPGTGKTLLARAVAGEADVPFYYASGSEFDEMFVGVGASRIRNLFREAKANAPCVIFIDELDSVGGKRIESPMHPYSRQTINQLLAEMDGFKPNEGVIIIGATNFPEALDNALIRPGRFDMQVTVPRPDVKGRTEILKWYLNKIKFDQSVDPEIIARGTVGFSGAELENLVNQAALKAAVDGKEMVTMKELEFSKDKILMGPERRSVEIDNKNKTITAYHESGHAIIAYYTKDAMPINKATIMPRGPTLGHVSLLPENDRWNETRAQLLAQMDVSMGGRVAEELIFGTDHITTGASSDFDNATKIAKRMVTKFGMSEKLGVMTYSDTGKLSPETQSAIEQEIRILLRDSYERAKHILKTHAKEHKNLAEALLTYETLDAKEIQIVLEGKKLEVR
The term stoichiometry N denotes the number of molecules, sites or subunits per partner or assembly. Turning to B1, the “stoichiometry N” value in the data set “SEC” turned out to be 6.

B2: ^hexYME1L_(E439A) M452C (other, homo sapiens)
chain: B1 chain with E165A, M178C
As to B2, the “stoichiometry N” value in data set [1] is 6.

B3: ^hexYME1L_(E439A) M500C (other, homo sapiens)
chain: B1 chain with E165A, M226C
For the protein B3, in data set [1], the “stoichiometry N” value turned out to be 6.

B4: ^hexYME1L_(E439A) M701C (other, homo sapiens)
chain: B1 chain with E165A, M427C
B4: the “stoichiometry N” value in data set [1] came to 6.
